Reference: article PMC10793500, “Structural insights into RNA cleavage by a novel family of bacterial RNases” (Research Square, 2023)

Biological target: the molecule itself
Test: crystal structure; apo YicC; hanging drop vapor diffusion, 0.1M Tris pH 8.5, 0.3M lithium sulfate, 25% PEG 3350; six copies in the asymmetric unit

B1: YicC (E. coli endoribonuclease, proposed name RNase CS) (enzyme, UniProt P23839 1-287, looked up)
chain: MIRSMTAYARREIKGEWGSATWEMRSVNQRYLETYFRLPEQFRSLEPVVRERIRSRLTRGKVECTLRYEPDVSAQGELILNEKLAKQLVTAANWVKMQSDEGEINPVDILRWPGVMAAQEQDLDAIAAEILAALDGTLDDFIVARETEGQALKALIEQRLEGVTAEVVKVRSHMPEILQWQRERLVAKLEDAQVQLENNRLEQELVLLAQRIDVAEELDRLEAHVKETYNILKKKEAVGRRLDFMMQEFNRESNTLASKSINAEVTNSAIELKVLIEQMREQIQNIE
notes: YicC of E. coli, the prototypical member of the YicC family of endoribonucleases; Expressed from a modified pET47b vector; also called apo YicC; source: E. coli (culture of EG1261, IPTG induced), purified (Ni-NTA, SUMO-protease cleavage, Superdex 200; for cryo-EM also Hitrap Q)
  stoichiometry N: 6
